This is an account of results in article PMC10531356, “Hardening of Respiratory Syncytial Virus Inclusion Bodies by Cyclopamine Proceeds through Perturbation of the Interactions of the M2-1 Protein with RNA and the P Protein” (International Journal of Molecular Sciences, 2023).

Where no end group is shown, it is not given here. The star is where a group is joined. FITC = O=C1OC2(c3ccc(O)cc3Oc3cc(O)ccc32)c2ccc(NC(=S)*)cc21

The target of assay [1] is M2-1-mCherry fusion protein (wild type) (human respiratory syncytial virus (hRSV), strain Long). In words: SEC; Hi-Load 16/600 Superdex 200, 20 mM Tris-HCl pH 7.4, 150 mM NaCl, after GST cleavage. For orientation: SEC sorts molecules by how far they enter the pores of the column.
Assay [2] deals with M2-1(R151K)-mCherry mutant (human respiratory syncytial virus (hRSV), strain Long). The assay is described as above.
Assay [3] addresses T1, M2-1 core domain (wild type) (human respiratory syncytial virus …, UniProt P04545 58-177, 15N-labelled for NMR).
T1 construct: C-terminal globular core domain of M2-1 of hRSV strain Long, from pGEX-M2-1core; UniProt entry of strain Long not known to me; also called 15N-M2-1core; WT M2-1core
T1 sequence: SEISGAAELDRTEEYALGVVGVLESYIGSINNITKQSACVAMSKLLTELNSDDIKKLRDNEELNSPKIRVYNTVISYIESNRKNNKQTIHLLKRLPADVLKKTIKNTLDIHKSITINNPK
Kind of assay: MST; FITC-P95-112 fixed at 100 nM, M2-1core 0 to 33.5 µM, PBS with 1% DMSO and 0, 1 or 10 µM CPM, 20 °C, Monolith NT.115. The conditions noted are these: both partners purified.

As usually defined, the stoichiometry N is the number of molecules, sites or subunits per partner or assembly. In turn, “M2-1-mCherry fusion protein (wild type) (natural protein)” came in with a stoichiometry N in assay [1] of 4. Consider “M2-1(R151K)-mCherry mutant (natural protein)”, for which the stoichiometry N in assay [2] is 4.

B1: FITC-P(95-112) peptide (peptide)
peptide: {FITC}-DNPFSKLYKETIETFDNN
notes: also called synthetic FITC-P peptide; P peptide; source: synthetic peptide, bought: Proteogenix
Usually Kd stands for the free concentration of one partner at which half of the binding sites on the other are occupied at equilibrium, for simple one-to-one binding. The molecule B1 returned a Kd in assay [3] of approximately 20 µM.
